The values that follow come from PMC12809495, “Potential 14-3-3 binding sites in sirtuins reveal extended phosphosite-recognition modes” (Acta Crystallographica Section F: Structural Biology …, 2026).

“And” between values parts separate entries of the source, which are not always exact repeats. Equal values may be shown once. Where no end group is shown, it is not given here. [ ]: non-standard residue; d: D form. pS = N[C@@H](COP(=O)(O)O)C(=O)O

The chains are these.
B4: 14-3-3σ-ΔC (C-terminally truncated human 14-3-3σ) (domain or fragment, UniProt P31947 1-231, looked up)
chain: MERASLIQKAKLAEQAERYEDMAAFMKGAVEKGEELSCEERNLLSVAYKNVVGGQRAAWRVLSSIEQKSNEEGSEEKGPEVREYREKVETELQGVCDTVLGLLDSHLIKEAGDAESRVFYLKMKGDYYRYLAEVATGDDKKRIIDSARSAYQEAMDISKKEMPPTNPIRLGLALNFSVFHYEIANSPEEAISLAKTTFDEAMADLHTLSEDSYKDSTLIMQLLRDNLTLWT
notes: 14-3-3σ, human, C-terminally truncated gene fragment (ΔC) cloned into pPROEX-HTb; the structures show 'all 231 residues of the 14-3-3 monomer'; No removal of the His6 tag is described; The dimer in the crystals is formed with a symmetry mate; also called 14-3-3-ΔC; source: E. coli BL21 Rosetta (DE3), purified (nickel-nitrilotriacetic acid column)

The target in data set [1] is B4. The data set can be described thus: MST; label-free, intrinsic fluorescence of the 14-3-3 protein; 0.6 µM 14-3-3 protein titrated with peptide; 25 mM MES pH 6.5, 5 mM MgCl2, 5 mM CaCl2; 25°C. The following applies: both partners purified.
Data set [2] concerns the target 14-3-3σ-ΔC (C-terminally truncated human 14-3-3σ) (human) (UniProt P31947). Described as above.
Data set [3] addresses T1, 14-3-3σ-ΔC (C-terminally truncated human 14-3-3σ) (human, UniProt P31947 1-231).
T1 chain: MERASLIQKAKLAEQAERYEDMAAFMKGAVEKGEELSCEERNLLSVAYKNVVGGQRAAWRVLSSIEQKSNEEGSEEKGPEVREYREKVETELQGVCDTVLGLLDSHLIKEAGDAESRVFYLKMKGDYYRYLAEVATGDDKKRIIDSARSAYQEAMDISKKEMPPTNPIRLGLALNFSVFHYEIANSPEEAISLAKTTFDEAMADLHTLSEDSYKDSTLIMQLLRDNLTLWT
The data set can be described thus: MST.

The next data set has as its target T2, 14-3-3 theta (Homo sapiens).
T2 chain: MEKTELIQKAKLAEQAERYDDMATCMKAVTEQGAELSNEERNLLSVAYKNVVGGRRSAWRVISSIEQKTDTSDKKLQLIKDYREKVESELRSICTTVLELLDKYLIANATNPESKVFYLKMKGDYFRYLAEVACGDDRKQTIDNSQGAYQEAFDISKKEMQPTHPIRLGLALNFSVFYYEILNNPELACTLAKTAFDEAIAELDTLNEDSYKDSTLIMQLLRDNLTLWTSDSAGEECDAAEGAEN
Put plainly: MST.

The next data set addresses T3, 14-3-3 epsilon (Homo sapiens).
T3 chain: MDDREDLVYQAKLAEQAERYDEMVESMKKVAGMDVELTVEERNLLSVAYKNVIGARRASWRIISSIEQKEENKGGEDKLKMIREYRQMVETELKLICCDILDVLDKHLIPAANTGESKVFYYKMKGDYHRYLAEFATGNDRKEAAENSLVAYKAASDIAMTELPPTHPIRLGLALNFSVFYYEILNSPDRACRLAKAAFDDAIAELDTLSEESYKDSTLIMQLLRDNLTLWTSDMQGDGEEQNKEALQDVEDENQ
Put plainly: MST.

Data set [4] deals with 14-3-3σ-ΔC (C-terminally truncated human 14-3-3σ) (human) (UniProt P31947). Put plainly: ITC; 150 µM 14-3-3σ-ΔC in the cell, fourfold-concentrated phosphopeptide in the needle; 2 µl injections; 25°C; one-site fit; apparent. (In general: Isothermal titration calorimetry measures the heat released or taken up as one component is titrated into another.)
Data set [5] concerns the molecule itself. The data set can be described thus: crystal structure; protein and peptide mixed 1:1.5; 0.1 M HEPES-NaOH pH 7.5, 0.2 M CaCl2, 24-28% PEG 400, 5% glycerol, 1 mM TCEP, 4°C.

B1: Sirt3^S103 nonphosphorylated peptide (peptide)
chain: GRRSISFSVGA
modifications: none (nonphosphorylated Ser103). Limits are not given; they are taken from the 11-residue peptide in PDB 8ANC entity 2 (GRRSISFSVGA, S103 at position 6), assuming the same endecamer …
Molecule B1 yielded a Kd in data set [1] of around 881 µM.

B2: Sirt3^pS103 phospho-endecamer peptide (peptide)
chain: GRRSI[pS]FSVGA
modifications: also: phosphoserine at 103 (place in chain not given here)
With B2, the Kd in data set [2] is 1.5 µM and 2.1 µM; in data set [3] it was 10 µM; in the data set with 14-3-3 theta it was 52 µM; in the data set with 14-3-3 epsilon it was above 267 µM.

B3: Sirt1^pS670 phospho-endecamer peptide (peptide)
chain: VLSSS[pS]CGSNS
modifications: also: phosphoserine at 670 (place in chain not given here)
Consider B3, for which the Kd is 5 µM in data set [4], 93 µM with 14-3-3 theta and above 183 µM with 14-3-3 epsilon.
For B4, the binding result in data set [5] is listed as “binds”.
